Results published in patent US20150202273A1 (SHENZHEN INNOVATION IMMUNOTECHNOLOGY, published 2015).

Target: HLA-A2 molecules on T2 cells (human)
Assay: cell-based or functional assay

IFN-γ release (ELISA) by expanded peptide-specific T cells in response to T2 cells pre-loaded with titrated peptide (0-20 µg/ml) [µg/mL] | Binder
5 | WLAFPLCSL [PSGR4]
5 | ILANIYLLV [PSGR3]
5 | VILANIYLLV [PSGR14]
